US7528106B2, “Compositions and methods for treatment of neovascular diseases” (The Scripps Research Institute, priority 2004, dated 2009)

Tested on: deep retinal vascular network formation in neonatal Balb/C mice
Assay: Neonatal mouse retinal angiogenesis model
Type: in vivo
Settings: for % of eyes with 0-10% inhibition of deep vascular layer / % of eyes with 10-25% inhibition of deep vascular layer / % of eyes with 25-50% inhibition of deep vascular layer / % of eyes with 50-75% inhibition of deep vascular layer / % of eyes with 75-100% inhibition of deep vascular layer / % of eyes with 100% inhibition of deep vascular layer / % of eyes with >95% inhibition of deep vascular layer: intravitreal P4, read P12
Source text: Description of the Model. Immediately after birth (postnatal day zero; “P0”), retinal vasculature is virtually absent in the mouse. By four weeks after birth (P28) the retina has attained an adult pattern of retinal vessels coincident with the onset of vision. Physiological neovascularization of the retina occurs during this period via a stereotypical, biphasic developmental pattern of angiogenesis. During the primary phase of retinal vascular development, spoke-like peripapillary vessels grow radially from the central retinal artery and vein, becoming progressively interconnected by a capillary plexus that forms between them. This “inner retinal plexus” grows in area, volume and complexity, centrifugally, as a monolayer within the nerve fiber layer during the first seven to ten days following birth.
The second phase of retinal vessel formation begins between postnatal days 7 (P7) and 10 (P10) when collateral branches sprout from capillaries of the superficial plexus and penetrate into the retina where their tips branch and anastamose laterally to form a planar “deep vascular plexus”. While the deep vascular plexus is in place by P14, it undergoes extensive remodeling from P14 to P21. It is of interest to note that the formation of these vascular networks in the neonatal mouse are strikingly similar to the events occurring in the third trimester human fetus.
Advantages and Quantification of the Model. The reproducibility of the murine retinal development process and its easy accessibility in neonatal animals provide an opportunity to assess the efficacy of antiangiogenic compounds in a physiologically relevant model of angiogenesis. Additional advantages of the neonatal mouse model are the ability to qualitatively and quantitatively evaluate the angiostatic effect of putative antagonists of angiogenesis. Angiostatic activity was evaluated based upon the degree of angiogenesis in the deep, outer retinal vascular layer (secondary layer) that develops between P8 and P12. The appearance of the inner blood vessel network (primary layer) was evaluated for normal development and signs of toxicity.
Preparation of Compositions. Peptidomimetic integrin signaling inhibitor Compound (1) is solubilized in PBS at a concentration of about 20 mg/ml in PBS (1× concentration). T2-TrpRS is solubilized in PBS at a concentration of about 0.5 mg/ml (1× concentration). VEGF aptamer (pegaptanib sodium; Compound (2)) is solubilized in PBS at a concentration of about 2 mg/ml (1× concentration) to achieve an injection of approximately 1 μg/eye at 1× concentration. For all combination assays the compounds were prepared at 2 or 3 times the 1× concentration of each material and then combined to produce a final solution containing each individual compound at the same concentration as was used alone (e.g., 1×, 0.5×, 0.25× or 0.1×, as the case may be). For all assays, a single injection of 0.5 μl of PBS solutions of the drugs was administered intravitreally regardless of the number of compounds being injected. As used herein, the term “0.1×” refers to one tenth of the 1× concentration of a given material, “0.25×” refers to one quarter of the 1× concentration of a given material, “0.5×” refers to one half of the 1× concentration of a given material, and so forth for similar designations.
An in vivo angiogenesis assay in the neonatal mouse (Balb/C, The Jackson Laboratory, Bar Harbor, Me.) was used to evaluate the angiostatic activity of integrin signaling inhibitor Compound (1), T2-TrpRS, and VEGF aptamer Compound (2). Intravitreous injection and retina isolation was performed with a dissecting microscope (SMZ 645, Nikon, Japan). […] The samples (0.5 μl) were injected with a Hamilton syringe fitted with a 32-gauge needle (Hamilton Company, Reno, Nev.). The injection was made between the equator and the corneal limbus. During injection, the location of the needle tip was monitored by direct visualization to determine that it was in the vitreal cavity. […]

[1] = Ex 2, 0.1× of each (1×: T2-TrpRS 0.5, Comp. (2) 2 mg/ml)
[2] = Ex 3, 1× of each (T2-TrpRS 0.5, Comp. (2) 2 mg/ml)
[3] = Ex 6, 1× of each (T2-TrpRS 0.5, Comp. (2) 2 mg/ml)
[4] = Ex 7, 1× (T2-TrpRS 0.5, Comp. (2) 2 mg/ml)
[5] = Ex 9, 1× of each (Comp. (1) 20, Comp. (2) 2, T2-TrpRS 0.5 mg/ml)

B1: T2-TrpRS: 43 kDa angiostatic T2 fragment of human tryptophanyl-tRNA synthetase, SEQ ID NO: 1 (protein)
chain: MSAKGIDYDKLIVRFGSSKIDKELINRIERATGQRPHHFLRRGIFFSHRDMNQVLDAYENKKPFYLYTGRGPSSEAMHVGHLIPFIFTKWLQDVFNVPLVIQMTDDEKYLWKDLTLDQAYSYAVENAKDIIACGFDINKTFIFSDLDYMGMSSGFYKNVVKIQKHVTFNQVKGIFGFTDSDCIGKISFPAIQAAPSFSNSFPQIFRDRTDIQCLIPCAIDQDPYFRMTRDVAPRIGYPKPALLHSTFFPALQGAQTKMSASDPNSSIFLTDTAKQIKTKVNKHAFSGGRDTIEEHRQFGGNCDVDVSFMYLTFFLEDDDKLEQIRKDYTSGAMLTGELKKALIEVLQPLIAEHQARRKEVTDEIVKEFMTPRKLSFDFQ
modifications: homo sapiens
inhibition of neovascularization (0.1× concentrations (1 μg/eye integrin antagonist, 0.2 μg/eye VEGF aptamer, 0.025 μg/eye T2-TrpRS)): negligible | % of eyes with 0-10% inhibition of deep vascular layer [1]: 50% | % of eyes with 10-25% inhibition of deep vascular layer [1]: 37.5% | % of eyes with 25-50% inhibition of deep vascular layer [1]: 12.5% | % of eyes with 50-75% inhibition of deep vascular layer [1]: 0% | % of eyes with 75-100% inhibition of deep vascular layer [1]: 0% | % of eyes with 100% inhibition of deep vascular layer [1]: 0% | % of eyes with >95% inhibition of deep vascular layer [1]: 0% | % of eyes with 0-10% inhibition of deep vascular layer [2]: 12.5% | % of eyes with 10-25% inhibition of deep vascular layer [2]: 12.5% | % of eyes with 25-50% inhibition of deep vascular layer [2]: 0% | % of eyes with 50-75% inhibition of deep vascular layer [2]: 12.5% | % of eyes with 75-100% inhibition of deep vascular layer [2]: 62.5% | % of eyes with 100% inhibition of deep vascular layer [2]: 12.5% | % of eyes with >95% inhibition of deep vascular layer [2]: 12.5% | % of eyes with 0-10% inhibition of deep vascular layer (Ex 4, 1× (0.5 mg/ml)): 12.5% | % of eyes with 10-25% inhibition of deep vascular layer (Ex 4, 1× (0.5 mg/ml)): 37.5% | % of eyes with 25-50% inhibition of deep vascular layer (Ex 4, 1× (0.5 mg/ml)): 12.5% | % of eyes with 50-75% inhibition of deep vascular layer (Ex 4, 1× (0.5 mg/ml)): 12.5% | % of eyes with 75-100% inhibition of deep vascular layer (Ex 4, 1× (0.5 mg/ml)): 25% | % of eyes with 100% inhibition of deep vascular layer (Ex 4, 1× (0.5 mg/ml)): 0% | % of eyes with >95% inhibition of deep vascular layer (Ex 4, 1× (0.5 mg/ml)): 0% | % of eyes with 0-10% inhibition of deep vascular layer (Ex 5, 1× (0.5 mg/ml)): 33.3% | % of eyes with 10-25% inhibition of deep vascular layer (Ex 5, 1× (0.5 mg/ml)): 16.7% | % of eyes with 25-50% inhibition of deep vascular layer (Ex 5, 1× (0.5 mg/ml)): 33.3% | % of eyes with 50-75% inhibition of deep vascular layer (Ex 5, 1× (0.5 mg/ml)): 0% | % of eyes with 75-100% inhibition of deep vascular layer (Ex 5, 1× (0.5 mg/ml)): 16.7% | % of eyes with 100% inhibition of deep vascular layer (Ex 5, 1× (0.5 mg/ml)): 0% | % of eyes with >95% inhibition of deep vascular layer (Ex 5, 1× (0.5 mg/ml)): 16.7% | % of eyes with 0-10% inhibition of deep vascular layer [3]: 50% | % of eyes with 10-25% inhibition of deep vascular layer [3]: 25% | % of eyes with 25-50% inhibition of deep vascular layer [3]: 12.5% | % of eyes with 50-75% inhibition of deep vascular layer [3]: 12.5% | % of eyes with 75-100% inhibition of deep vascular layer [3]: 0% | % of eyes with 100% inhibition of deep vascular layer [3]: 0% | % of eyes with >95% inhibition of deep vascular layer [3]: 0% | % of eyes with 0-10% inhibition of deep vascular layer [4]: 25% | % of eyes with 10-25% inhibition of deep vascular layer [4]: 12.5% | % of eyes with 25-50% inhibition of deep vascular layer [4]: 12.5% | % of eyes with 50-75% inhibition of deep vascular layer [4]: 0% | % of eyes with 75-100% inhibition of deep vascular layer [4]: 50% | % of eyes with 100% inhibition of deep vascular layer [4]: 0% | % of eyes with >95% inhibition of deep vascular layer [4]: 12.5% | % of eyes with 0-10% inhibition of deep vascular layer (Ex 8, 1× (0.5 mg/ml)): 30% | % of eyes with 10-25% inhibition of deep vascular layer (Ex 8, 1× (0.5 mg/ml)): 30% | % of eyes with 25-50% inhibition of deep vascular layer (Ex 8, 1× (0.5 mg/ml)): 20% | % of eyes with 50-75% inhibition of deep vascular layer (Ex 8, 1× (0.5 mg/ml)): 10% | % of eyes with 75-100% inhibition of deep vascular layer (Ex 8, 1× (0.5 mg/ml)): 10% | % of eyes with 100% inhibition of deep vascular layer (Ex 8, 1× (0.5 mg/ml)): 0% | % of eyes with >95% inhibition of deep vascular layer (Ex 8, 1× (0.5 mg/ml)): 0% | % of eyes with 0-10% inhibition of deep vascular layer [5]: 12.5% | % of eyes with 10-25% inhibition of deep vascular layer [5]: 0% | % of eyes with 25-50% inhibition of deep vascular layer [5]: 25% | % of eyes with 50-75% inhibition of deep vascular layer [5]: 12.5% | % of eyes with 75-100% inhibition of deep vascular layer [5]: 50% | % of eyes with 100% inhibition of deep vascular layer [5]: 0% | % of eyes with >95% inhibition of deep vascular layer [5]: 12.5% | % of eyes with 0-10% inhibition of deep vascular layer (Ex 10, 0.1× (1×=0.5 mg/ml)): 75% | % of eyes with 10-25% inhibition of deep vascular layer (Ex 10, 0.1× (1×=0.5 mg/ml)): 25% | % of eyes with 25-50% inhibition of deep vascular layer (Ex 10, 0.1× (1×=0.5 mg/ml)): 0% | % of eyes with 50-75% inhibition of deep vascular layer (Ex 10, 0.1× (1×=0.5 mg/ml)): 0% | % of eyes with 75-100% inhibition of deep vascular layer (Ex 10, 0.1× (1×=0.5 mg/ml)): 0% | % of eyes with 0-10% inhibition of deep vascular layer (Ex 10, 0.3× (1×=0.5 mg/ml)): 33.3% | % of eyes with 10-25% inhibition of deep vascular layer (Ex 10, 0.3× (1×=0.5 mg/ml)): 16.7% | % of eyes with 25-50% inhibition of deep vascular layer (Ex 10, 0.3× (1×=0.5 mg/ml)): 8.3% | % of eyes with 50-75% inhibition of deep vascular layer (Ex 10, 0.3× (1×=0.5 mg/ml)): 16.7%
